Total and Unique data for eleven substances are collected here from patent publication US20220119489A1, “COMPOSITIONS AND METHODS FOR TREATING MUSCULAR DYSTROPHY AND RELATED DISORDERS” (CHILDREN'S MEDICAL CENTER CORPORATION, priority 2019, published 2022).

Sequence of Annexin A2 (human) (P07355 2-339 limits assumed): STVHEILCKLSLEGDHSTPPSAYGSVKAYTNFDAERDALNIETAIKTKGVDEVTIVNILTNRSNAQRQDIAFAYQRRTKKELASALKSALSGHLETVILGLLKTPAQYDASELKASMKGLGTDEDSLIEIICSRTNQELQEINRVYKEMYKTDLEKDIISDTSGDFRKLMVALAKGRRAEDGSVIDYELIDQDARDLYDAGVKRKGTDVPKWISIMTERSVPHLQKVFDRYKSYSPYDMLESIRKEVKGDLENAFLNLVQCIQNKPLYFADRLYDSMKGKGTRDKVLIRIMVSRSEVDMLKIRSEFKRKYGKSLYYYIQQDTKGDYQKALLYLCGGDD

The first test addresses CD82 (mouse) (mouse) (UniProt P40237). As to the kind of experiment: IP with anti CD82 antibodies, mouse muscle tissue, mass spectrometry.
TBA1A_MOUSE (from UniProt P68369) returned a Total of 3 and a Unique of 3.
With “G3P_MOUSE (from UniProt P16858) (enzyme)”, the Total was 2 and the Unique is 2.
For the substance KV2A7_MOUSE, the Total is 2 and the Unique was found to be 2.

A further test has as its target T1, CD82 polypeptide (human) (human).
T1 sequence (P27701 whole entry, looked up): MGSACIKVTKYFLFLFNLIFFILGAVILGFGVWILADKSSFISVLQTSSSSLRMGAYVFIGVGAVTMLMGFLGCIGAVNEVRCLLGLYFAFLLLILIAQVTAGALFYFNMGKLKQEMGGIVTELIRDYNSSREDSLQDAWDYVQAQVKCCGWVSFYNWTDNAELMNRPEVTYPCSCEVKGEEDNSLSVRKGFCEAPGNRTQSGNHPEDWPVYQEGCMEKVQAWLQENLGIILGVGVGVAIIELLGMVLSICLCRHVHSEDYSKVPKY
Description: IP with anti CD82 antibodies, human myotubes, mass spectrometry.
Substance Filamin B (from UniProt O75369) displayed a Total of 3 and a Unique of 3.
As to “Annexin A2 (human) (from UniProt P07355)”, the Total came out at 5 and the Unique came to 5.
In turn, “nonmuscle myosin IIA (from UniProt P35579)” had a Total of 77 and a Unique of 64.
For Myoferlin (from UniProt Q9NZM1) the same measures were 32 and 31.
Filamin A (from UniProt P21333) registered a Total of 30 and a Unique of 30.
For the substance profilin (from UniProt P07737), the Total is 3 and the Unique turned out to be 3.
Regarding Filamin C (from UniProt Q14315), the Total turned out to be 24 and the Unique came to 24.
In the case of Dysferlin (from UniProt O75923), the Total came out at 32 and the Unique worked out at 31.
